For one molecule, stoichiometry N results are on record in article doi:10.1101/2024.04.28.591520.

The stoichiometry N is a count of units in the complex or per binding partner.

In this experiment the target is T1, Mycobacterium tuberculosis polyketide synthase 13 (Mycobacterium tuberculosis), I6X8D2.
T1 chain: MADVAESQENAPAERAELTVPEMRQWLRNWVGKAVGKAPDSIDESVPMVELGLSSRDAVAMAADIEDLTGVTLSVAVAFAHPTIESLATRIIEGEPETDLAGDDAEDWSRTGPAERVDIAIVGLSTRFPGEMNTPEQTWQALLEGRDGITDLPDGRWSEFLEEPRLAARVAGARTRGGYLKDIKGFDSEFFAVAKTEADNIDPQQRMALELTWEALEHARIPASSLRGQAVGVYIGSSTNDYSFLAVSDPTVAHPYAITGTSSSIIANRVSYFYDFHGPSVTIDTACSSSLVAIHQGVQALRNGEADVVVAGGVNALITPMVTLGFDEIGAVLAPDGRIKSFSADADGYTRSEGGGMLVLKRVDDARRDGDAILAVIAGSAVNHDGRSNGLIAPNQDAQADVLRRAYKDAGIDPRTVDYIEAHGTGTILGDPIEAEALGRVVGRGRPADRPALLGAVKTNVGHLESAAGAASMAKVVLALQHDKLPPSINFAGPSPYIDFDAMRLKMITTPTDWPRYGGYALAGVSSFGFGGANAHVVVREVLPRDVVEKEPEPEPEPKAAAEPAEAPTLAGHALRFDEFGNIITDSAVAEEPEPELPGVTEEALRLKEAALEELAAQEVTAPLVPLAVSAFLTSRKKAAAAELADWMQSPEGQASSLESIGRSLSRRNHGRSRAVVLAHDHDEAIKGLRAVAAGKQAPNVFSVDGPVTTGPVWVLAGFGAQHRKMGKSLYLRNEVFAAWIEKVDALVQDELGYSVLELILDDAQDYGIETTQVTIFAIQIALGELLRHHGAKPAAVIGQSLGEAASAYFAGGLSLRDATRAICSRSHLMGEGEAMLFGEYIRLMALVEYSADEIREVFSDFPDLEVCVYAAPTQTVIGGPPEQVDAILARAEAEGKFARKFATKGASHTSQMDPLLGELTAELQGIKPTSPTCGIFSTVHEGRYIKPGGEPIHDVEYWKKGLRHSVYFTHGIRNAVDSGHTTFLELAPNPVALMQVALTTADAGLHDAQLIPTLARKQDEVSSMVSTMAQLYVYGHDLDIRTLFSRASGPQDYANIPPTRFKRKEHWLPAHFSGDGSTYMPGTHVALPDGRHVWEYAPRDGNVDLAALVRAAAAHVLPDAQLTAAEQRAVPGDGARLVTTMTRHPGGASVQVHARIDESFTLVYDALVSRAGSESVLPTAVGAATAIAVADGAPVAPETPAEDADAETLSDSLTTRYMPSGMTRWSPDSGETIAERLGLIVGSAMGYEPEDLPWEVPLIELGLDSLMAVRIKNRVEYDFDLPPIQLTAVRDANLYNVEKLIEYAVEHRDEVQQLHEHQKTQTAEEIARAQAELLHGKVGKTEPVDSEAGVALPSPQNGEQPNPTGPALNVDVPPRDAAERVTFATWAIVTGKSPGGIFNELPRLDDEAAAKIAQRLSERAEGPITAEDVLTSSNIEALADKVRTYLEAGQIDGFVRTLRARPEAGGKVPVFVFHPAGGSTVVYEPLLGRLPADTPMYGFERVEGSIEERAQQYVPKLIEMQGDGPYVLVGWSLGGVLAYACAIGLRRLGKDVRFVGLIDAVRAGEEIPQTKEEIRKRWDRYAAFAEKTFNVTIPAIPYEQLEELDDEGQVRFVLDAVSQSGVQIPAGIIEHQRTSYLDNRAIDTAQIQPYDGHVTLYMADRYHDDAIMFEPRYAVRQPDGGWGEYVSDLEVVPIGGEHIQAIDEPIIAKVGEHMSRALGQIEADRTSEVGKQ
In words: AUC. To be noted: remark: other sources report otherwise.

B1: Mycobacterium tuberculosis polyketide synthase 13, I6X8D2 1-1733 (enzyme)
chain: T1 chain
As to B1, the stoichiometry N is 2.
